Laboratory results taken from patent US20080279841A1, “Novel Therapeutic Molecular Variants And Uses Thereof” (MEDVET SCIENCE PTY LTD., priority 2000, published 2008).
“Also recorded” adds a separate entry of the source. Read-outs that look alike come from different tables or passages of the source.

What was measured:
[1] = molecular target: wild-type sphingosine kinase (Homo sapiens, UniProt Q9NYA1); conditions: chemical inhibitor hitherto used widely; cited from earlier work
[2] = Sphingosine kinase activity of lysates of HEK293/HEK293T cells transfected with hSK or mutant hSK; format: biochemical, human; conditions: for sphingosine kinase (catalytic) activity of the variant itself: transfected HEK293 cells (FIG. 2); for Vmax: standardised for the expression levels of the two recombinant proteins
Experimental: (§1) Cell Culture and Transfection—Human embryonic kidney cells (HEK293T, ATCC CRL-1573) cells were cultured on Dulbecco's modified Eagle's medium (DMEM; CSL Biosciences, Parkville, Austrlia) containing 10% fetal calf serum, 2 mM glutamine, 0.2% (w/v) sodium bicarbonate, penicillin (1.2 mg/ml), and gentamycin (1.6 mg/ml). Transfections were performed using the calcium phosphate precipitation method (Graham & van der Eb, 1973). Cells were harvested and lysed by sonication (2 watts for 30 s at 4° C.) in lysis buffer containing 50 mM Tris/HCl (pH 7.4), 10% glycerol, 0.05% Triton X-100, 150 mM NaCl, 1 mM dithiothreitol, 2 mM Na3VO4 10 mM NaF, and 1 mM EDTA. Protein concentrations in cell homogenates were determined with either the Coomassie Brillant Blue (Sigma) or Bichinchoninic acid (Pierce) reagents using BSA as standard.
as §1, with “Australia)” for “Austrlia)”, “Na3VO4,” for “Na3VO4”, “with” for “with either”, “Brilliant” for “Brillant”, “reagent” for “or Bichinchoninic acid (Pierce) reagents”
(§2) Kinetic parameters were calculated using a non-linear regression program.

[3] = system: endogenous sphingosine kinase; assay: Activation of endogenous sphingosine kinase activity by TNFα, IL-1 and PMA in HEK293 cells expressing the variant; format: cell-based, human; conditions: for effect on increases in sphingosine kinase activity after activating agents: 100 units/ml IL-1 10 min, 100 ng/ml PMA 30 min (FIGS. 3 & 4)
Experimental: HEK293 cells transfected with either pcDNA3-G82DSK or empty pcDNA3 vector were treated with 1 ng/ml TNFα and 100 units/ml IL-1 for 10 min and 100 ng/ml PMA for 30 min.
FIG. 4 is a graphical representation of time course of sphingosine kinase activation by TNFα in HEK293 cells expressing G82D SK. HEK293 cells transfected with either pcDNA3-G82DSK or empty pcDNA3 vector were treated with 1 ng/ml TNFα. Cells were harvested at various times over 45 min. of TNFα treatment with the cell lysates assayed for sphingosine kinase activity.
as §1

[4] = system: overexpressed wild-type sphingosine kinase; assay: Activation of overexpressed wild-type sphingosine kinase by TNFα in cotransfected HEK293 cells; format: cell-based, human; conditions: for effect on activation of overexpressed wild-type sphingosine kinase: HEK293 cells cotransfected with equal proportions, 1 ng/ml TNFα 10 min (FIG. 5)
Experimental: HEK293 cells, either transfected with pcDNA3-SK, or cotransfected with equval proportions of pcDNA3-SK and pcDNA3-G82DSK were treated with 1 ng/ml TNFα for 10 min. Cells were then harvested and the SK activity in the cell lysates determined.
as §1

[5] = system: sphingosine kinase stimulated by the oncogene Ras; assay: Activation of SK by the oncogene Ras in 3T3 fibroblasts; format: cell-based; conditions: 3T3 fibroblasts (FIG. 6)
Experimental: (§3) A. NIH 3T3 cells were transfected with V12-Ras, v-Src or V12-Ras plus G82D-SK, SphK activity was measured 48 h after transfection. B. Focus formation assays were performed in V12-Ras, v-Src, SphK, or V12-Ras plus G82D-SK transfected NIH 3T3 cells in the absence or presence of DMS (2.5 μM) over two weeks.
(§4) For focus formation assay, low passage NIH 3T3 cells were transfected with the V12 mutant H-ras, v-SRC (gifts from Dr. Julian Downward^2), SphK, G82D mutant SphK expression vectors or empty vector using Lipofectamine Plus as described above. Two days later, the transfected cells were split to 6-well plates. After reaching confluence, they were kept for two weeks in DMEM containing 5% calf serum. The foci were visualized and scored after staining with 0.5% crystal violet. For soft agar assay, suspensions of 1×10^4 cells from the stable transfected pools in a growth medium containing 0.33% agar were overlaid onto 0.6% agar gel in the absence or presence of DMS at various concentrations. After 14-days incubation colonies were stained with 0.1 mg/ml MTT and those greater than 0.1 mm in diameter were scored as positive.

[6] = system: protein kinase C; assay: Protein kinase C activity in situ in HEK293 cells (TNFα or PMA); format: cell-based, human; conditions: TNFα or PMA (FIG. 7)
Experimental: (§5) Neutral sphingomyelinase activity was determined using [choline-methyl-^14C]sphingomyelin as substrate, essentially as previously described (Wiegmann et al., 1994). Briefly, whole cell lysates, prepared as described above, were added to an equal volume of 100 mM Tris/HCl buffer (pH 7.4) containing 0.2% Triton X-100, 10 mM MgCl2 and [choline-methyl-^14C]sphingomyelin (50,000 cpm/assay) and incubated at 37° C. for 60 min. Radioactive phosphorylcholine produced was then extracted with chloroform/methanol (2:1, v/v) and quantified in the aqueous phase by scientillation counting. The measurement of PKC activity in situ was performed as described previously (Xia et al., 1996). Briefly, cells were seeded in 24-well plates and maintained in culture medium until 70-80% confluent. After the indicated treatments, the cells were washed with DMEM and placed in 60 μl of buffered salt solution (137 mM NaCl, 5.4 mM KCl, 0.3 mM Na2HPO4, 0.4 mM KH2PO4, 5.5 mM glucose, and 20 mM HEPES) supplemented with 50 μg/ml digitonin, 10 mM MgCl2, 25 mM β-glycerophosphate, and 10 μM [γ^32P]ATP (5000 cpm/pmol). A PKC-specific peptide substrate ([sequence]) was then added (to 2001) in the presence of 5 mM EGTA and 2.5 mM CaCl2. […] The PKC-dependent phosphorylated peptide substrate bound to the filter was quantified by scintillation counting.

[7] = system: ERK; assay: ERK activation by TNFα in HEK293 cells (Western blot); format: cell-based, human; conditions: TNFα (FIG. 9)
Experimental: Western Blotting—SDS-PAGE was performed on cell lysates according to the method of Laemmli using 12% acrylamide gels. Proteins were blotted to nitrocellulose and the membranes blocked overnight at 4° C. in PBS containing 5% skim milk and 0.1% Triston X-100. Sphingosine kinase expression levels were analysed with the M2 anti-FLAG antibody (Sigma). ERK activation in response to agonists was followed in cells serum-starved for 4 h using anti-ERK1/2 (Zymed, San Francisco, Calif.) and anti-phospho-ERK1/2 (Promega, Madison, Wis.) antibodies. Immunocomplexes were detected after conjugation to either HRP anti-mouse (Pierce) or anti-rabbit (Selinus/AMRAD, Melbourne, Australia) IgG using an enhanced chemiluminescence kit (Amersham).

[8] = system: NIH 3T3 cells; assay: Focus formation (transformation) assay in V12-Ras transfected NIH 3T3 cells; format: cell-based; conditions: V12-Ras plus G82D-SK transfected NIH 3T3 cells, two weeks (FIG. 11)
Experimental: as §3, §4

[9] = system: sphingomyelinase; conditions: HEK293 cells, TNF (FIG. 8)
Experimental: as §5

[10] = Kinetic analysis of hSK with ATP; format: biochemical, human
Experimental: Kinetic analyses were performed with ATP in the concentration range of 0-2 mM and 0-40 mM for hSK^WT and hSK^G82A, respectively. In both cases sphingosine was present at 100 μM.
as §2

[11] = Kinetic analysis of hSK with sphingosine; format: biochemical, human; conditions: for Km: sphingosine 0-2 mM, ATP 1 mM (hSK^WT), 40 mM (hSK^G82A), non-linear regression
Experimental: Kinetic analyses were performed with sphingosine in the concentration range of 0-2 mM for both hSK^WT and hSK^G82A. ATP was present at 1 mM and 40 mM for hSK^WT and hSK^G82A, respectively.
as §2

CCCCCCCCCCCCC/C=C/[C@@H](O)[C@H](CO)N(C)C [DMS, N′N-dimethylsphingosine]
effect on wild-type sphingosine kinase function [1]: totally eliminates

B1: G82DSK: human sphingosine kinase mutant, substitution of the glycine at position 82 to aspartic acid (protein)
chain: MDPAGGPRGVLPRPCRVLVLLNPRGGKGKALQLFRSHVQPLLAEAEISFTLMLTERRNHARELVRSEELGRWDALVVMSGDDLMHEVVNGLMERPDWETAIQKPLCSLPAGSGNALAASLNHYAGYEQVTNEDLLTNCTLLLCRRLLSPMNLLSLHTASGLRLFSVLSLAWGFIADVDLESEKYRRLGEMRFTLGTFLRLAALRTYRGRLAYLPVGRVGSKTPASPVVVQQGPVDAHLVPLEEPVPSHWTVVPDEDFVLVLALLHSHLGSEMFAAPMGRCAAGVMHLFYVRAGVSRAMLLRLFLAMEKGRHMEYECPYLVYVPVVAFRLEPKDGKGVFAVDGELMVSEAVQGQVHPNYFWMVSGCVEPPPSWKPQQMPPPEEPL
sphingosine kinase (catalytic) activity of the variant itself [2]: no sphingosine kinase activity
sphingosine kinase (catalytic) activity of the variant itself ([2]; listed as G82D): catalytically inactive
effect on increases in sphingosine kinase activity after activating agents ([3]; 1 ng/ml TNFα): totally suppresses; also recorded: only eliminates activation
effect on increases in sphingosine kinase activity after activating agents ([3]; 1 ng/ml TNFα, listed as G82D SK): blocks activation
effect on TNF mediated sphingosine kinase activation over time ([3]; 1 ng/ml TNFα, time course over 45 min (FIG. 4)): inhibits TNF mediated activation at all time point
effect on endogenous baseline sphingosine kinase activity ([3]; no stimulus (FIG. 2)): does not suppress
effect on activation of overexpressed wild-type sphingosine kinase [4]: activation is decreased
effect on activation of overexpressed wild-type sphingosine kinase ([4]; listed as G82D SK): decreases activation
effect on overexpressed baseline sphingosine kinase levels ([4]; HEK293 cells overexpressing sphingosine kinase (FIG. 5)): not altered
effect on sphingosine kinase stimulated by the oncogene Ras [5]: inhibits
effect on sphingosine kinase stimulated by the oncogene Ras ([5]; listed as G82D SK): inhibiting activation
effect on activation of protein kinase C [6]: does not depress
effect on activation of protein kinase C ([6]; listed as G82D SK): does not effect activation
effect on activation of erk by TNF [7]: inhibits
effect on activation of erk by TNF ([7]; listed as G82D SK): prevents ERK activation
effect on Ras transformation (focus formation) [8]: inhibits Ras transformation
effect on activation of sphingomyelinase [9]: does not depress
effect on activation of sphingomyelinase ([9]; listed as G82D SK): does not inhibit activation

B2: hSK^G82A: human sphingosine kinase mutant, substitution of the glycine at position 82 to alanine (protein, UniProt Q9NYA1 1-384, looked up, variant G82A)
Sphingosine kinase 1: MDPAGGPRGVLPRPCRVLVLLNPRGGKGKALQLFRSHVQPLLAEAEISFTLMLTERRNHARELVRSEELGRWDALVVMSGDALMHEVVNGLMERPDWETAIQKPLCSLPAGSGNALAASLNHYAGYEQVTNEDLLTNCTLLLCRRLLSPMNLLSLHTASGLRLFSVLSLAWGFIADVDLESEKYRRLGEMRFTLGTFLRLAALRTYRGRLAYLPVGRVGSKTPASPVVVQQGPVDAHLVPLEEPVPSHWTVVPDEDFVLVLALLHSHLGSEMFAAPMGRCAAGVMHLFYVRAGVSRAMLLRLFLAMEKGRHMEYECPYLVYVPVVAFRLEPKDGKGVFAVDGELMVSEAVQGQVHPNYFWMVSGCVEPPPSWKPQQMPPPEEPL
Vmax [2]: 32 percentage of the maximum velocity calculated for SK^WT
catalytic activity relative to wildtype hSK ([2]; transfected HEK293T cell lysates (FIG. 12)): ~5%
affinity for ATP compared with wildtype hSK ([10]; FIG. 13): considerably lower affinity for ATP
affinity for sphingosine compared with wildtype hSK ([11]; FIG. 14): remains unaffected
Km [11]: 15.5 µM

B3: hSK^WT: wild-type human sphingosine kinase (SK-1), recombinant, FLAG tagged, expressed in HEK293T cells (protein, UniProt Q9NYA1 1-384, looked up)
Sphingosine kinase 1: MDPAGGPRGVLPRPCRVLVLLNPRGGKGKALQLFRSHVQPLLAEAEISFTLMLTERRNHARELVRSEELGRWDALVVMSGDGLMHEVVNGLMERPDWETAIQKPLCSLPAGSGNALAASLNHYAGYEQVTNEDLLTNCTLLLCRRLLSPMNLLSLHTASGLRLFSVLSLAWGFIADVDLESEKYRRLGEMRFTLGTFLRLAALRTYRGRLAYLPVGRVGSKTPASPVVVQQGPVDAHLVPLEEPVPSHWTVVPDEDFVLVLALLHSHLGSEMFAAPMGRCAAGVMHLFYVRAGVSRAMLLRLFLAMEKGRHMEYECPYLVYVPVVAFRLEPKDGKGVFAVDGELMVSEAVQGQVHPNYFWMVSGCVEPPPSWKPQQMPPPEEPL
modifications: FLAG tag
notes: wild-type human sphingosine kinase (SK-1), recombinant, FLAG tagged, expressed in HEK293T cells
Vmax [2]: 100 percentage of the maximum velocity calculated for SK^WT
Km ([10]; sphingosine 100 μM, ATP 0-2 mM (hSK^WT), 0-40 mM (hSK^G82A), non-linear regression): 115 µM
Km [11]: 12.1 µM
